These results are taken from paper PMC8083607 (National Science Review, 2021).

Holding throughout (test): ELISA
Common to all, as to conditions: both partners purified
A general note: ELISA stands for enzyme-linked immunosorbent assay.

Assay [1] deals with SARS-CoV RBD (Severe acute respiratory syndrome …, UniProt P59594).
Assay [2] has as its target SARS-CoV NTD (SARS-CoV, strain not named (reference …, UniProt P59594)).
For assay [3], the target named is T1, SARS-CoV-2 NTD (recombinant, limits not stated) (SARS-CoV-2 Wuhan-Hu-1 (MN908947.3), UniProt P0DTC2).
T1 construct: also called N-terminal domain

Assay [4] has as its target SARS-CoV-2 S2 (recombinant) (SARS-CoV-2 Wuhan-Hu-1 (MN908947.3 used …, UniProt P0DTC2)).
Assay [5] deals with SARS-CoV S2 (SARS-CoV, strain not named (reference …, UniProt P59594)).
The target of assay [6] is MERS-CoV S2 (MERS-CoV, strain not named (entry: …, UniProt K9N5Q8)).
MERS-CoV S2 (MERS-CoV, strain not named, sequence (K9N5Q8 whole entry, looked up): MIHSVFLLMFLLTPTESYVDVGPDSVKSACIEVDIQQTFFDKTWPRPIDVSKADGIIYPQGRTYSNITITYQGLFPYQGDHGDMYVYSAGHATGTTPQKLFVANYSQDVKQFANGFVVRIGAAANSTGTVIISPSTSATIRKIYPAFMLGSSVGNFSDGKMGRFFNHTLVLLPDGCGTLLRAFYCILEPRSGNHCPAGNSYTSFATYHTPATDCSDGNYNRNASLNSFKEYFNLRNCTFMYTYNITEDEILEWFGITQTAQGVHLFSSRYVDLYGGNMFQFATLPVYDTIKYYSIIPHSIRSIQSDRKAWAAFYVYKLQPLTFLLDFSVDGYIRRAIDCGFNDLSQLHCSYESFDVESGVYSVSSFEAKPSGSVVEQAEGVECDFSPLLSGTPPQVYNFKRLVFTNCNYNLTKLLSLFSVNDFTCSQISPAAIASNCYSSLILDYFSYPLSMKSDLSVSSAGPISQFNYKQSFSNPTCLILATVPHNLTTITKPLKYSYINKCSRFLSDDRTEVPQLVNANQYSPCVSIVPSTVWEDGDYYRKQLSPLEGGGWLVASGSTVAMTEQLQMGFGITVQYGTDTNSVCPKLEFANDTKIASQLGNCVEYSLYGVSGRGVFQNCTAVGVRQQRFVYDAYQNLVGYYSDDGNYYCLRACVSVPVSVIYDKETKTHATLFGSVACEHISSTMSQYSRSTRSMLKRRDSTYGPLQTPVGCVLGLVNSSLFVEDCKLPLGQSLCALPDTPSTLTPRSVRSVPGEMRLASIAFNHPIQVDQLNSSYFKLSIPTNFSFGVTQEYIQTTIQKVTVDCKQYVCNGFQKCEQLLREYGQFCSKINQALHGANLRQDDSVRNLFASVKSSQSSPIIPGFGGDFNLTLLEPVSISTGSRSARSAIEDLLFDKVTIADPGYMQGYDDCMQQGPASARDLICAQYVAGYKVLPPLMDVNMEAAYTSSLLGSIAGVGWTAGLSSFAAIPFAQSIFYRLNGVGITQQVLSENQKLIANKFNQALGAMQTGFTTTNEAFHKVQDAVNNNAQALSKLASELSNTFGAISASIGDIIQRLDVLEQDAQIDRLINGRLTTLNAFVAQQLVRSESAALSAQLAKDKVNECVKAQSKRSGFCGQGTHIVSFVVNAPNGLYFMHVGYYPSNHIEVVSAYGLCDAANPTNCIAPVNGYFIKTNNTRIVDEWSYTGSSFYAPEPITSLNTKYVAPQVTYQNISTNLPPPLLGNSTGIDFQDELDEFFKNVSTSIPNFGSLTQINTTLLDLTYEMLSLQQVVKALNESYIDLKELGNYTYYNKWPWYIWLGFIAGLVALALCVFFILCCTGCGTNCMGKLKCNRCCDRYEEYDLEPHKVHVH

Where a chain is given by its changes, count along the chain named.

B1: FC11 (antibody, V domains shown)
VH: EVQLLESGGGVVQPGRSLRLSCAASGFTFSYYGMHWVRQAPGTGLEWVAVISYDGSNEYYADSVKGRFTISRDNSKNTLYLQMNSLRAEDTAVYYCAKAMFLGDSSGLTGLDMDVWGQGTTVTVSS
VL: DIELTQSPGTLSLSPGERATLSCRASQSVSSYLAWYQQKPGQAPRLLIYDASNRATGIPARFSGSGSGTDFTLTISSLEPEDFALYYCQQRGNWPPTFGGGTKLEIK
For B1, the binding result in assay [1] is “binds”.

B2: FC07 (antibody, V domains shown)
VH: EVQLLESGGGLVQPGGSLRLSCAASGFTFGSYAMSWVRQAPGKGLEWVSSISGSGGSTYYADSAKGRFTISRDNSKNTLYLQMNSLRAEDTAVYYCAKSPNYDILTGYYNWAGYYFDYWGQGTLVTVSS
VL: DIELTQSPGTLSLSPGDRATLSCRASRGVSSNSLAWYRQRPGESPRLVISGASTRATGIPERFSGSGSGTDFSLSISRLQPEDFAVYYCQQYGSFPFTFGPGTTVDV
Turning to B2, the binding result in assay [2] and in assay [3] was “binds” in each case.

B3: FC06 (antibody, V domains shown)
VH: EVQLLESGGGVVQPGRSLRLSCAASGFTFSSYAMHWVRQAPGEGLEWVAVISYDGSNKYYADSVKGRFTISRDNSKNTLYLQMNSLRAGDTAVYYCARLNYYGSGFYYRLGDDYWGQGTLVTVSS
VL: DIELTQSPSSLSASEGDRVTITCRASQGIRNDLGWYQQKPGKAPKRLIYGAPSLQSGVPSRFSGSGSGTEFTLTISTLQPEDSATYYCLQHNKYPWTFGQGTKVEIK
Regarding B3, the binding result in assay [3] was “binds”.

B4: FC124 (antibody, V domains shown)
VH: EVQLLESGGGVVQPGRSLRLSCAASGFTFSSYAMHWVRQAPGKGLEWVALISYDGINKYYADSVNGRFTISRDNSKYTLYLQMNSLRAEDTAVYYCARAHRGSYYYGMDVWGQGTMVTVSS
VL: DIELTQSPGTLSLSPGERATLYCRASQSVSSSYLAWYQQKPGQAPRLLIYGAFGRAAGIPDRFRGSGSGTQFTLTISRLEPEDSAVYFCQQYGQSPLYSFGQGTKLEIK
B4: the binding result in assay [4], in assay [5] and in assay [6] was “binds” each time.

B5: FC118 (antibody, V domains shown)
VH: B4 VH with L50V, I56S, N65K, Y77N, H100R, R101G, Y105L, T115A
VL: DIELTQSPSSLAASVGDTVTITCRASQTIGKYLTWYQKKPGRAPDLLIYAASRLQSGVPSRFSGRASGTEFTLTISSLQPEDFATYFCQHTYRTLSFGPGTKVDLK
In the case of B5, the binding result in assay [4], in assay [5] and in assay [6] was “binds” each time.

B6: FC122 (antibody, V domains shown)
VH: B4 VH
VL: DIELTQSPSSLSASVGDSVTITCRGSQIISRYLNWYQQKPGKAPKLLIYAASTLQSGVPSRFSGSGSGTEFTLSISSLEPEDFATYYCQQSYAIPYTFGQGTRLEI
For the molecule B6, the binding result in assay [4] is given as “binds”.

B7: FC120 (antibody, V domains shown)
VH: EVQLLESGAEVKKPGASVKVSCKASGYTFTSYYMHWVRQAPGQGLEWMGIINPSGGSTSYAQKFQGRVTMTRDTSTSTVYMELSSLRSEDTAVYYCARGGGHALDIWGQGTMVTVSS
VL: QSVLTQPPSVSGAPGQKVTISCSGSSSNIGNNYVSWYQQLPGTAPKLLIYDNNKRPSGIPDRFSGSKSGTSATLGITGLQTGDEADYYCGTWDSSLSAWVFGGGTKLTVL
Regarding B7, the binding result in assay [4], in assay [5] and in assay [6] was “binds” each time.

B8: FC05 (antibody, V domains shown)
VH: VQLLEQSGAEVKKPGASVRVSCKVSGYTLPEVAMHWVRQAPGKGLEWMGGFDPEDGETMYAQKFQGRVTMTEDTSTDTAYMELSSLRSEDTAVYYCATTTPFSSSYWFDPWGQGTLVTVSS
VL: B7 VL with P7A, W99V
notes: also called FC05 mAb
Regarding B8, the binding result in assay [3] is on record as “binds”.
